Measurements: patent US12016906B2, “Pharmaceutical composition for anaemia” (Frimline Private Limited, priority 2018, dated 2024)

What was measured:
Type in all cases: in vivo, male Wistar rats (Rat Rattus)
Settings in all cases: IDD rats
[1] = tested on: Iron deficient Diet (IDD) induced anaemia in rats; test: Hb level in IDD induced anaemia in rats
Experimental: (§1) Screening of pharmaceutical composition/formulation comprising combination of Lactoferrin+Guanosine Nucleotide or a pharmaceutically acceptable salt thereof with or without optional ingredients against Iron deficient Diet (IDD) induced anaemia in rats. For this study different parameters like Hb Level, Hematocrit level, Serum Iron level, Ferroportin level, Serum Ferritin level, Hepcidin level and IL-6 Level were evaluated. The following trials were carried out by taking reference from Wang Xl, Liu S, Xu H, Yan W, Effects of recombinant human lactoferrin on improving the iron status of IDA. Wei Sheng Yan Jiu.
(§2) 72 male Wistar rats (Rat Rattus) (6 per group) were maintained in animal house in a light/dark atmosphere based on a 12 hour cycle having temperature and relative humidity in the range of 22±3° C. and 30-70% respectively. To maintain the appropriate conditions, temperature and relative humidity were recorded three times daily. All animals were acclimatized for a minimum period of five days. Animals were maintained in the test setup for minimum 30 minutes once during the acclimatization period to reduce the stress. Animals were weighed on the day of receipt and observed daily for abnormalities if any. Detailed records of acclimatization were also maintained. Rats were housed 6 per cage in clean, sterilized Polypropylene cages. […]
After 3 weeks of respective dietary intervention, the level of Hemoglobin was determined in each animal.
(§3) After 5 weeks (35 days) of respective dietary intervention, once again hemoglobin level, HCT % level and serum iron level were analyzed and then, respective drug treatment was started with continuous administration of Iron deficient diets in all groups as mentioned above in Table 1.
(§4) After 9 weeks of respective drug treatment (total after 14 weeks from start of the study—98 days), various biochemical parameters were measured to evaluate the effect of respective individual and combination therapy on iron deficient anaemia model (G3 to G12). […]

[2] = tested on: Iron deficient Diet (IDD) induced anaemia in rats; test: Hematocrit % level in IDD induced anaemia in rats
Experimental: as §1, with “Jiu. 2012 January; 41(1):13-7, 22 and Nora M. El-Sheikh, the Protective Effect of Soybean and Thyme on Iron Deficiency Anemia in Rats, the Egyptian Journal of Hospital Medicine (2008) Vol., 33: 510-520 as available.” for “Jiu.”
as §2, with “any.” for “any. Detailed records of acclimatization were also maintained. Rats were housed 6 per cage in clean, sterilized Polypropylene cages.”
(§5) After 3 weeks of respective dietary intervention, the level of Hemoglobin was determined in each animal. […]
as §3, §4

[3] = tested on: Iron deficient Diet (IDD) induced anaemia in rats; test: Serum iron level in IDD induced anaemia in rats
Experimental: as §1, with “Jiu. 2012 January; 41(1):13-7, 22 and Nora M. El-Sheikh, the Protective Effect of Soybean and Thyme on Iron Deficiency Anemia in Rats, the Egyptian Journal of Hospital Medicine (2008) Vol., 33: 510-520 as available.” for “Jiu.”
as §2, with “any.” for “any. Detailed records of acclimatization were also maintained. Rats were housed 6 per cage in clean, sterilized Polypropylene cages.”
as §5, §3, §4

[4] = tested on: Iron deficient Diet (IDD) induced anaemia in rats; test: Ferroportin level in IDD induced anaemia in rats
Experimental: as §1, with “Jiu. […]” for “Jiu.”
(§6) 72 male Wistar rats (Rat Rattus) (6 per group) were maintained in animal house in a light/dark atmosphere based on a 12 hour cycle having temperature and relative humidity in the range of 22±3° C. and 30-70% respectively. To maintain the appropriate conditions, temperature and relative humidity were recorded three times daily. […]
(§7) After 5 weeks (35 days) of respective dietary intervention, once again hemoglobin level, HCT % level and serum iron level were analyzed and then, respective drug treatment was started with continuous administration of Iron deficient diets in all groups as mentioned above in Table 1. […]

[5] = tested on: Iron deficient Diet (IDD) induced anaemia in rats; test: Serum ferritin level in IDD induced anaemia in rats
Experimental: as §1, with “Jiu. […]” for “Jiu.”
as §6, §7

[6] = tested on: Iron deficient Diet (IDD) induced anaemia in rats; test: Hepcidin level in IDD induced anaemia in rats
Experimental: as §1, with “Jiu. […]” for “Jiu.”
as §6, §7

[7] = tested on: Iron deficient Diet (IDD) induced anaemia in rats; test: IL-6 level in IDD induced anaemia in rats
Experimental: as §1
72 male Wistar rats (Rat Rattus) (6 per group) were maintained in animal house in a light/dark atmosphere based on a 12 hour cycle having temperature and relative humidity in the range of 22±3° C. and 30-70% respectively. To maintain the appropriate conditions, temperature and relative humidity were recorded three times daily. All animals were acclimatized for a minimum period of five days. […]
as §7

[8] = Day 98, after 9 weeks of treatment p.o.

B1: Lactoferrin: multifunctional globular glycoprotein of the transferrin family, about 80 kDa; individual component group (protein, UniProt P02788 20-710, looked up)
Lactotransferrin: GRRRSVQWCAVSQPEATKCFQWQRNMRKVRGPPVSCIKRDSPIQCIQAIAENRADAVTLDGGFIYEAGLAPYKLRPVAAEVYGTERQPRTHYYAVAVVKKGGSFQLNELQGLKSCHTGLRRTAGWNVPIGTLRPFLNWTGPPEPIEAAVARFFSASCVPGADKGQFPNLCRLCAGTGENKCAFSSQEPYFSYSGAFKCLRDGAGDVAFIRESTVFEDLSDEAERDEYELLCPDNTRKPVDKFKDCHLARVPSHAVVARSVNGKEDAIWNLLRQAQEKFGKDKSPKFQLFGSPSGQKDLLFKDSAIGFSRVPPRIDSGLYLGSGYFTAIQNLRKSEEEVAARRARVVWCAVGEQELRKCNQWSGLSEGSVTCSSASTTEDCIALVLKGEADAMSLDGGYVYTAGKCGLVPVLAENYKSQQSSDPDPNCVDRPVEGYLAVAVVRRSDTSLTWNSVKGKKSCHTAVDRTAGWNIPMGLLFNQTGSCKFDEYFSQSCAPGSDPRSNLCALCIGDEQGENKCVPNSNERYYGYTGAFRCLAENAGDVAFVKDVTVLQNTDGNNNEAWAKDLKLADFALLCLDGKRKPVTEARSCHLAMAPNHAVVSRMDKVERLKQVLLHQQAKFGRNGSDCPDKFCLFQSETKNLLFNDNTECLARLHGKTTYEKYLGPQYVAGITNLKKCSTSPLLEACEFLRK
- Hemoglobin Pre-treatment ([1]; Day 35, before treatment): 8.8 g/dL
- Hemoglobin Post-treatment [1, 8]: 10.3 g/dL
- Hemoglobin % Change compared to Disease control ([1]; Day 98): 58.8%
- Hematocrit Pre-treatment ([2]; Day 35, before treatment): 35.33%
- Hematocrit Post-treatment [2, 8]: 40.17%
- Hematocrit % Change compared to Disease control ([2]; Day 98): 56.3%
- Serum IRON Pre-treatment ([3]; Day 35, before treatment): 3.08 ppm
- Serum IRON Post-treatment [3, 8]: 5.31 ppm
- Serum IRON % Change compared to Disease control ([3]; Day 98): 99.1%
- Ferroportin Post-treatment [4, 8]: 3.6 ng/mL
- Ferroportin % Change compared to Disease control ([4]; Day 98): 31.4%
- Ferritin Post-treatment [5, 8]: 680 ng/mL
- Ferritin % Change compared to Disease control ([5]; Day 98): −8.1%
- Hepcidin Post-treatment [6, 8]: 3830 ng/mL
- Hepcidin % Change compared to Disease control ([6]; Day 98): −13.0%
- IL-6 Post-treatment [7, 8]: 57.2 pg/mL
- IL-6 % Change compared to Disease control ([7]; Day 98): −8.2%
